These are literature values, as cited in article PMC10231660.

Where two headings read alike, the source gives them in different places.

Data set [1] deals with MC1R (UniProt Q01726).
Data set [2] addresses ZNRF3 (Homo sapiens) (UniProt Q9ULT6).
For data set [3], the target named is BMPR1A ECD (Homo sapiens) (UniProt P36894).
In data set [4] the target is ZNRF3 (Homo sapiens) (UniProt Q9ULT6). The source holds these as a separate data set.
For data set [5] the target is unchanged. This is another data set of the same source.
For data set [6] the target is unchanged. This is another data set of the same source.

Chain of UniProt Q9ULT6 (Q9ULT6 56-219): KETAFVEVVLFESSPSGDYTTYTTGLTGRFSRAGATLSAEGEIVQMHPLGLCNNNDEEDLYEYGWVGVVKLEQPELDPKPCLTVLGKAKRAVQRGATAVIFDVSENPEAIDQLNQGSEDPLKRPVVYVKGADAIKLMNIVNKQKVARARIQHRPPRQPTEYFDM
Chain of UniProt P36894 (P36894 24-152): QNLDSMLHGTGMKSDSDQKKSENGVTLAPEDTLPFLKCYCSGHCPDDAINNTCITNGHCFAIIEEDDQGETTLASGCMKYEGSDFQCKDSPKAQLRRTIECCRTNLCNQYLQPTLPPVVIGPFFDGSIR
Chain of UniProt Q01726 (Q01726 whole entry): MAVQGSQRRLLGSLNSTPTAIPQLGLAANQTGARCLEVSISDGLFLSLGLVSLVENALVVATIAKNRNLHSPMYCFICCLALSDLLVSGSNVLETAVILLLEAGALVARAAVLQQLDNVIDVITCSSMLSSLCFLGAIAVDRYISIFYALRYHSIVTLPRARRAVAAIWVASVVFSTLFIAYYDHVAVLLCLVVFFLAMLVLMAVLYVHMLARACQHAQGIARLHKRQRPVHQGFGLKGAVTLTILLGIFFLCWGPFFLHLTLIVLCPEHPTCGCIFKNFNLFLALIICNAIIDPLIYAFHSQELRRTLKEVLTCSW

As for ASP CTD (from UniProt P42127), in data set [1], the Kd is 1 nM. RSPO1 FU1 (from UniProt Q2MKA7): in data set [2], the Kd is 6.8 µM.

Regarding RSPO2 (from UniProt Q6UXX9), the Kd in data set [3] was 4.8 nM. RSPO2 FU1 (from UniProt Q6UXX9): the Kd in data set [4] is 25 nM. Regarding RSPO3 FU1 (from UniProt Q9BXY4), the Kd in data set [5] is 60 nM. On to RSPO4 FU1 (from UniProt Q2I0M5), for which, in data set [6], the Kd was 300 µM.
